Measured values from the supplement of paper PMC7125110.
± gives the standard error. For some assays here: Fewer inactive variants are shown than the library holds.

B1: glmS ribozyme (parent)
chain: AUAAAAGCGCCAGAACUACAGAAAUGUAGUUGACGAGGAGGAGGUUUAUCGAAUUUUCGGCGGAUGCCUCCAAA

What was measured:
Conditions in all cases: with glucosamine-6-phosphate
glucosamine-6-phosphate [1] = variants of: B1; experiment: kcat; higher = faster cleavage; RNA array
Method in brief: (§1)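 The measurements used barcoded ribozyme variants on sequenced MiSeq chips, transcribed in situ by E. coli RNA polymerase and tracked at 37 °C with a hybridised Cy3 probe. Glucosamine-6-phosphate, 40 μM to 10 mM in HEPES/KCl/Mg(OAc)2 buffer, was flowed in while tiles were imaged over ~14 h. Baseline-normalised signals, also normalised to non-cleaving reference variants, gave per-tile medians that were fit to one- or two-exponential decays for kobs. kcat and KM resulted from weighted Michaelis–Menten fits across concentrations.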

glucosamine-6-phosphate [2] = variants of: B1; experiment: KM; higher = weaker cofactor use; RNA array
Method in brief: as §1

glucosamine-6-phosphate [3] = variants of: B1; experiment: self-cleavage kobs at 640 uM GlcN6P; higher = faster cleavage; RNA array
Method in brief: as §1

glucosamine-6-phosphate [4] = variants of: B1; experiment: self-cleavage kobs at 2500 uM GlcN6P; higher = faster cleavage; RNA array
Method in brief: as §1

glucosamine-6-phosphate [5] = variants of: B1; experiment: self-cleavage kobs at 10000 uM GlcN6P; higher = faster cleavage; RNA array
Method in brief: as §1

glucosamine-6-phosphate [6] = variants of: B1; experiment: self-cleavage kobs at 160 uM GlcN6P; higher = faster cleavage; RNA array
Method in brief: as §1

glucosamine-6-phosphate [7] = variants of: B1; experiment: self-cleavage kobs at 40 uM GlcN6P; higher = faster cleavage; RNA array
Method in brief: as §1

In the case of C16G G66U, the kcat (glucosamine-6-phosphate [1]) is reported as 0.000189 ± 5.3e-06 s⁻¹, the KM (glucosamine-6-phosphate [2]) is reported as 2380 ± 200 µM and the “self-cleavage kobs at 640 uM GlcN6P” value (glucosamine-6-phosphate [3]) is reported as 3.85e-05 ± 1.1e-05 s⁻¹. The “self-cleavage kobs at 2500 uM GlcN6P” value (glucosamine-6-phosphate [4]) was 9.99e-05 ± 1.6e-05 s⁻¹ and the “self-cleavage kobs at 10000 uM GlcN6P” value (glucosamine-6-phosphate [5]) was 0.000152 ± 1.3e-05 s⁻¹.

With C10U G35A the kcat (glucosamine-6-phosphate [1]) was 1.32e-05 ± 1.8e-06 s⁻¹ and the “self-cleavage kobs at 10000 uM GlcN6P” value (glucosamine-6-phosphate [5]) was less than 1e-05 s⁻¹.

With U31G U55G U56C the kcat (glucosamine-6-phosphate [1]) was 0.00133 ± 0.00026 s⁻¹, the KM (glucosamine-6-phosphate [2]) was 4490 ± 1500 µM and the “self-cleavage kobs at 160 uM GlcN6P” value (glucosamine-6-phosphate [6]) was 7.22e-05 ± 2.4e-05 s⁻¹. The “self-cleavage kobs at 640 uM GlcN6P” value (glucosamine-6-phosphate [3]) was 0.000162 ± 3.4e-05 s⁻¹, the “self-cleavage kobs at 2500 uM GlcN6P” value (glucosamine-6-phosphate [4]) was 0.000395 ± 9.8e-05 s⁻¹ and the “self-cleavage kobs at 10000 uM GlcN6P” value (glucosamine-6-phosphate [5]) was 0.000948 ± 0.00012 s⁻¹.

In the case of C11A A14C, the kcat (glucosamine-6-phosphate [1]) is reported as 6.31e-05 ± 3.4e-06 s⁻¹, the KM (glucosamine-6-phosphate [2]) is reported as 2820 ± 410 µM and the “self-cleavage kobs at 2500 uM GlcN6P” value (glucosamine-6-phosphate [4]) is reported as 3.05e-05 ± 1.3e-05 s⁻¹. For the same variant, the “self-cleavage kobs at 10000 uM GlcN6P” value (glucosamine-6-phosphate [5]) was 4.9e-05 ± 1.5e-05 s⁻¹.

In the case of U45C C71A, the kcat (glucosamine-6-phosphate [1]) is reported as 0.00125 ± 0.00022 s⁻¹, the KM (glucosamine-6-phosphate [2]) is reported as 4720 ± 1500 µM and the “self-cleavage kobs at 640 uM GlcN6P” value (glucosamine-6-phosphate [3]) is reported as 0.00014 ± 3.9e-05 s⁻¹. For the same variant, the “self-cleavage kobs at 2500 uM GlcN6P” value (glucosamine-6-phosphate [4]) was 0.000744 ± 0.00031 s⁻¹ and the “self-cleavage kobs at 10000 uM GlcN6P” value (glucosamine-6-phosphate [5]) was 0.000832 ± 0.00015 s⁻¹.

For A42G U46C, the kcat (glucosamine-6-phosphate [1]) was 0.00159 ± 0.00025 s⁻¹, the KM (glucosamine-6-phosphate [2]) was 1020 ± 260 µM and the “self-cleavage kobs at 40 uM GlcN6P” value (glucosamine-6-phosphate [7]) was 5.01e-05 ± 1.5e-05 s⁻¹. The “self-cleavage kobs at 160 uM GlcN6P” value (glucosamine-6-phosphate [6]) was 0.000237 ± 4.5e-05 s⁻¹, the “self-cleavage kobs at 640 uM GlcN6P” value (glucosamine-6-phosphate [3]) was 0.000597 ± 9.9e-05 s⁻¹ and the “self-cleavage kobs at 2500 uM GlcN6P” value (glucosamine-6-phosphate [4]) was 0.00137 ± 0.00023 s⁻¹. The “self-cleavage kobs at 10000 uM GlcN6P” value (glucosamine-6-phosphate [5]) was 0.00122 ± 0.00028 s⁻¹.

G41C A53C was tested, and the kcat (glucosamine-6-phosphate [1]) was 0.000159 ± 1.5e-05 s⁻¹, the KM (glucosamine-6-phosphate [2]) was 3660 ± 720 µM and the “self-cleavage kobs at 640 uM GlcN6P” value (glucosamine-6-phosphate [3]) was 1.93e-05 ± 9.5e-06 s⁻¹. For the same variant, the “self-cleavage kobs at 2500 uM GlcN6P” value (glucosamine-6-phosphate [4]) was 6.77e-05 ± 9.6e-06 s⁻¹ and the “self-cleavage kobs at 10000 uM GlcN6P” value (glucosamine-6-phosphate [5]) was 0.000115 ± 1.5e-05 s⁻¹.

For U30G A39U, the kcat (glucosamine-6-phosphate [1]) was 0.00794 ± 0.0035 s⁻¹, the “self-cleavage kobs at 40 uM GlcN6P” value (glucosamine-6-phosphate [7]) was 0.000127 ± 2.3e-05 s⁻¹ and the “self-cleavage kobs at 160 uM GlcN6P” value (glucosamine-6-phosphate [6]) was 0.000455 ± 8.4e-05 s⁻¹. The “self-cleavage kobs at 640 uM GlcN6P” value (glucosamine-6-phosphate [3]) was 0.000857 ± 0.00016 s⁻¹, the “self-cleavage kobs at 2500 uM GlcN6P” value (glucosamine-6-phosphate [4]) was 0.00224 ± 0.00096 s⁻¹ and the “self-cleavage kobs at 10000 uM GlcN6P” value (glucosamine-6-phosphate [5]) was 0.00645 ± 0.00095 s⁻¹.

In the case of U65G G66A, the kcat (glucosamine-6-phosphate [1]) is reported as 0.00234 ± 0.0003 s⁻¹, the KM (glucosamine-6-phosphate [2]) is reported as 2300 ± 450 µM and the “self-cleavage kobs at 40 uM GlcN6P” value (glucosamine-6-phosphate [7]) is reported as 4.28e-05 ± 9.4e-06 s⁻¹. For the same variant, the “self-cleavage kobs at 160 uM GlcN6P” value (glucosamine-6-phosphate [6]) was 0.000131 ± 2.3e-05 s⁻¹, the “self-cleavage kobs at 640 uM GlcN6P” value (glucosamine-6-phosphate [3]) was 0.000612 ± 0.0001 s⁻¹ and the “self-cleavage kobs at 2500 uM GlcN6P” value (glucosamine-6-phosphate [4]) was 0.0013 ± 0.0002 s⁻¹. The “self-cleavage kobs at 10000 uM GlcN6P” value (glucosamine-6-phosphate [5]) was 0.00183 ± 0.00025 s⁻¹.

With U57C C70G the kcat (glucosamine-6-phosphate [1]) was 1.91e-05 ± 3.1e-06 s⁻¹.

Variant A15U C16G G59C G60A C67U has a kcat (glucosamine-6-phosphate [1]) of less than 1e-05 s⁻¹.

For A12G C67G C68A, the kcat (glucosamine-6-phosphate [1]) was 6.18e-05 ± 2.3e-05 s⁻¹, the “self-cleavage kobs at 160 uM GlcN6P” value (glucosamine-6-phosphate [6]) was 6.68e-05 ± 1.8e-05 s⁻¹ and the “self-cleavage kobs at 640 uM GlcN6P” value (glucosamine-6-phosphate [3]) was 0.000113 ± 2.6e-05 s⁻¹. For the same variant, the “self-cleavage kobs at 2500 uM GlcN6P” value (glucosamine-6-phosphate [4]) was 6.87e-05 ± 1.8e-05 s⁻¹.

With A14G U57G the kcat (glucosamine-6-phosphate [1]) was 0.000171 ± 2.6e-06 s⁻¹, the KM (glucosamine-6-phosphate [2]) was 2380 ± 88 µM and the “self-cleavage kobs at 640 uM GlcN6P” value (glucosamine-6-phosphate [3]) was 3.71e-05 ± 8e-06 s⁻¹. For the same variant, the “self-cleavage kobs at 2500 uM GlcN6P” value (glucosamine-6-phosphate [4]) was 8.67e-05 ± 9.4e-06 s⁻¹ and the “self-cleavage kobs at 10000 uM GlcN6P” value (glucosamine-6-phosphate [5]) was 0.000139 ± 1.3e-05 s⁻¹.

With C34G G60U the kcat (glucosamine-6-phosphate [1]) was less than 1e-05 s⁻¹, the “self-cleavage kobs at 40 uM GlcN6P” value (glucosamine-6-phosphate [7]) was less than 1e-05 s⁻¹ and the “self-cleavage kobs at 2500 uM GlcN6P” value (glucosamine-6-phosphate [4]) was less than 1e-05 s⁻¹.

C68G U69A gave a kcat (glucosamine-6-phosphate [1]) of 1.57e-05 ± 5.7e-06 s⁻¹.

For G32C G37C, the kcat (glucosamine-6-phosphate [1]) was less than 1e-05 s⁻¹, the “self-cleavage kobs at 40 uM GlcN6P” value (glucosamine-6-phosphate [7]) was less than 1e-05 s⁻¹ and the “self-cleavage kobs at 10000 uM GlcN6P” value (glucosamine-6-phosphate [5]) was less than 1e-05 s⁻¹.

With A36C C58A the kcat (glucosamine-6-phosphate [1]) was 1.11e-05 ± 3.9e-06 s⁻¹ and the “self-cleavage kobs at 40 uM GlcN6P” value (glucosamine-6-phosphate [7]) was less than 1e-05 s⁻¹.

For G37A C71U, the kcat (glucosamine-6-phosphate [1]) was 0.00282 ± 0.00026 s⁻¹, the KM (glucosamine-6-phosphate [2]) was 2690 ± 370 µM and the “self-cleavage kobs at 40 uM GlcN6P” value (glucosamine-6-phosphate [7]) was 4.51e-05 ± 4.2e-06 s⁻¹. The “self-cleavage kobs at 160 uM GlcN6P” value (glucosamine-6-phosphate [6]) was 0.000172 ± 1.9e-05 s⁻¹, the “self-cleavage kobs at 640 uM GlcN6P” value (glucosamine-6-phosphate [3]) was 0.000478 ± 4.3e-05 s⁻¹ and the “self-cleavage kobs at 2500 uM GlcN6P” value (glucosamine-6-phosphate [4]) was 0.0015 ± 0.00028 s⁻¹. For the same variant, the “self-cleavage kobs at 10000 uM GlcN6P” value (glucosamine-6-phosphate [5]) was 0.00225 ± 0.00014 s⁻¹.
